# Positions of bridges follow the written chain, without caps; N, C: chain ends. Non-standard residues stand in square brackets, D forms with d. Trp(1-Me) = Cn1cc(C[C@H](N)C(=O)O)c2ccccc21; Sar = CNCC(=O)O
# B1: Compound 70 (peptide)
# peptide: Ac-EGSAYCI[Trp(1-Me)]QEWGEHRC[Sar]E-NH2
# modifications: disulfide 6-16
# SMILES: CC[C@H](C)[C@@H]1NC(=O)[C@@H](NC(=O)[C@H](Cc2ccc(O)cc2)NC(=O)[C@H](C)NC(=O)[C@H](CO)NC(=O)CNC(=O)[C@H](CCC(=O)O)NC(C)=O)CSSC[C@@H](C(=O)N(C)CC(=O)N[C@@H](CCC(=O)O)C(N)=O)NC(=O)[C@H](CCCNC(=N)N)NC(=O)[C@H](Cc2c[nH]cn2)NC(=O)[C@H](CCC(=O)O)NC(=O)CNC(=O)[C@H](Cc2c[nH]c3ccccc23)NC(=O)[C@H](CCC(=O)O)NC(=O)[C@H](CCC(N)=O)NC(=O)[C@H](Cc2cn(C)c3ccccc23)NC1=O
# B2: Compound 72 (peptide)
# peptide: Ac-FCI[Trp(1-Me)]QDW[Sar]EHRCTGAES-NH2
# modifications: disulfide 2-12
# SMILES: CC[C@H](C)[C@@H]1NC(=O)[C@@H](NC(=O)[C@H](Cc2ccccc2)NC(C)=O)CSSC[C@@H](C(=O)N[C@H](C(=O)NCC(=O)N[C@@H](C)C(=O)N[C@@H](CCC(=O)O)C(=O)N[C@@H](CO)C(N)=O)[C@@H](C)O)NC(=O)[C@H](CCCNC(=N)N)NC(=O)[C@H](Cc2c[nH]cn2)NC(=O)[C@H](CCC(=O)O)NC(=O)CN(C)C(=O)[C@H](Cc2c[nH]c3ccccc23)NC(=O)[C@H](CC(=O)O)NC(=O)[C@H](CCC(N)=O)NC(=O)[C@H](Cc2cn(C)c3ccccc23)NC1=O
# B3: Compound 68 (peptide)
# peptide: Ac-YCI[Trp(1-Me)]QDWGEHRCTEAGS-NH2
# modifications: disulfide 2-12
# SMILES: CC[C@H](C)[C@@H]1NC(=O)[C@@H](NC(=O)[C@H](Cc2ccc(O)cc2)NC(C)=O)CSSC[C@@H](C(=O)N[C@H](C(=O)N[C@@H](CCC(=O)O)C(=O)N[C@@H](C)C(=O)NCC(=O)N[C@@H](CO)C(N)=O)[C@@H](C)O)NC(=O)[C@H](CCCNC(=N)N)NC(=O)[C@H](Cc2c[nH]cn2)NC(=O)[C@H](CCC(=O)O)NC(=O)CNC(=O)[C@H](Cc2c[nH]c3ccccc23)NC(=O)[C@H](CC(=O)O)NC(=O)[C@H](CCC(N)=O)NC(=O)[C@H](Cc2cn(C)c3ccccc23)NC1=O
# B4: Compound 69 (peptide)
# peptide: Ac-YCI[Trp(1-Me)]QDWGEHRCTESGA-NH2
# modifications: disulfide 2-12
# SMILES: CC[C@H](C)[C@@H]1NC(=O)[C@@H](NC(=O)[C@H](Cc2ccc(O)cc2)NC(C)=O)CSSC[C@@H](C(=O)N[C@H](C(=O)N[C@@H](CCC(=O)O)C(=O)N[C@@H](CO)C(=O)NCC(=O)N[C@@H](C)C(N)=O)[C@@H](C)O)NC(=O)[C@H](CCCNC(=N)N)NC(=O)[C@H](Cc2c[nH]cn2)NC(=O)[C@H](CCC(=O)O)NC(=O)CNC(=O)[C@H](Cc2c[nH]c3ccccc23)NC(=O)[C@H](CC(=O)O)NC(=O)[C@H](CCC(N)=O)NC(=O)[C@H](Cc2cn(C)c3ccccc23)NC1=O
# B5: Compound 71 (peptide)
# peptide: Ac-SEYCI[Trp(1-Me)]QDWGEHRC[Sar]EA-NH2
# modifications: disulfide 4-14
# SMILES: CC[C@H](C)[C@@H]1NC(=O)[C@@H](NC(=O)[C@H](Cc2ccc(O)cc2)NC(=O)[C@H](CCC(=O)O)NC(=O)[C@H](CO)NC(C)=O)CSSC[C@@H](C(=O)N(C)CC(=O)N[C@@H](CCC(=O)O)C(=O)N[C@@H](C)C(N)=O)NC(=O)[C@H](CCCNC(=N)N)NC(=O)[C@H](Cc2c[nH]cn2)NC(=O)[C@H](CCC(=O)O)NC(=O)CNC(=O)[C@H](Cc2c[nH]c3ccccc23)NC(=O)[C@H](CC(=O)O)NC(=O)[C@H](CCC(N)=O)NC(=O)[C@H](Cc2cn(C)c3ccccc23)NC1=O
# Target: Human C3 (Complement tech cat #A113c) (human, UniProt P01024 23-1663)
# Sequence (P01024 23-1663 limits assumed): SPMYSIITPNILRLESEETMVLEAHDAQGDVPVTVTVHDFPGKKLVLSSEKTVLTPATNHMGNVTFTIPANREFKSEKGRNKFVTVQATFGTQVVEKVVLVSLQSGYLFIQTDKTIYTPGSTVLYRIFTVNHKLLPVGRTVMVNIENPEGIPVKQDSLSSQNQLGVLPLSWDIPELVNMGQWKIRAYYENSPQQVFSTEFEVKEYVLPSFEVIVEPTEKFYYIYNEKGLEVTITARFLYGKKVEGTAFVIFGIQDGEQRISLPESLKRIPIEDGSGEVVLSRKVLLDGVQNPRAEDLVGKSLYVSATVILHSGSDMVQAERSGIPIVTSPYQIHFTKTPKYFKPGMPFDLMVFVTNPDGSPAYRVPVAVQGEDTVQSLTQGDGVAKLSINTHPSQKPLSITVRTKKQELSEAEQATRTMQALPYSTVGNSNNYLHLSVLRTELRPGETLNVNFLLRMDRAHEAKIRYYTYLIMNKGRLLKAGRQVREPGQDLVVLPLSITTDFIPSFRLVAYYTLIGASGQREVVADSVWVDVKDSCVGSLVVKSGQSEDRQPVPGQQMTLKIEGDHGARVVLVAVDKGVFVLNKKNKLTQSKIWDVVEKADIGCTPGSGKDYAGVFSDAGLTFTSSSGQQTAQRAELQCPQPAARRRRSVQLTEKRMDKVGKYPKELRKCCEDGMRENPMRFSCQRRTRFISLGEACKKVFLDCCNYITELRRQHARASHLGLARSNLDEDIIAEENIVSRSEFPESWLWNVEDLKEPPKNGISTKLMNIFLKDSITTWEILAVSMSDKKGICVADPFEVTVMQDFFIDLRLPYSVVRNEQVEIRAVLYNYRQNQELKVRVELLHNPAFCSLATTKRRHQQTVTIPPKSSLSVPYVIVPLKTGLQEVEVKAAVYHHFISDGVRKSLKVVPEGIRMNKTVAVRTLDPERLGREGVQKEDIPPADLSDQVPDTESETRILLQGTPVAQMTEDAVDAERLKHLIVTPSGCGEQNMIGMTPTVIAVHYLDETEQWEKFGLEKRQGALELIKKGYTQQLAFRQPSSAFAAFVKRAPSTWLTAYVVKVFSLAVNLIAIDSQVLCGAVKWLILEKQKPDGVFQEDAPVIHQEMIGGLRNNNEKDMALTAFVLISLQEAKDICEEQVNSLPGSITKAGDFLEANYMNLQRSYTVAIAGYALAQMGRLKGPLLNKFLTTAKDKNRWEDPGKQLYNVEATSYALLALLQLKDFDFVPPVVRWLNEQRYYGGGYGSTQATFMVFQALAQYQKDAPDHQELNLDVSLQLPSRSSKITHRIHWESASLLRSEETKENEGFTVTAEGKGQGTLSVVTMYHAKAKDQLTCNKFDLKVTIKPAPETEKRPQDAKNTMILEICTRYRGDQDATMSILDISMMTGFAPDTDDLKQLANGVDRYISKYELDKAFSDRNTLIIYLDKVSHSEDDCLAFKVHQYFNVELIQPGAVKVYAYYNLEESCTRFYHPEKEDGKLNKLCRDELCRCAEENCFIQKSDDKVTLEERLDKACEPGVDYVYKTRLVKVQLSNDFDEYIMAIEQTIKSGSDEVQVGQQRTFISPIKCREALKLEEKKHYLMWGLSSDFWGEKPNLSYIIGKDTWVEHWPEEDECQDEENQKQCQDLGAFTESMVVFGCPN
# Test: cell-based or functional assay
row,Binder,inhibition of hemolysis IC50 [nM]
1,B1,< 100
2,B2,< 100
3,B3,< 100
4,B4,< 100
5,B5,< 100
